# Measured values taken from patent US20250042996A1 (ALLAKOS, published 2025).
# Substitutions are numbered along the chain they refer to. Like-named read-outs stand apart in the source and are kept apart here.
# B1: mouse anti-Siglec-9 monoclonal antibody 9A12 (antibody, V domains shown)
# VH: QVQLQQSGAELVRPGASVTLSCKASDYTFTDYEMHWVKQTPVHGLEWIGAIDPEAGGTDYNQKFKGKAILTADKSSSTAYMELRSLTSEDSAVYYCTRVWLHWGQGTTLTVSS
# VL: NIVMTQSPSSLAVSAGEKVTMNCKSSQSVLYSSNQKNYLAWYQQKPGQSPKMLIYWASTRESGVPDRFTGSGSGTDFTLTISSVQSEDLAVYYCHQYLSSNTFGGGTKLEIK
# notes: Mouse monoclonal antibody; also called m9A12
# B2: Tf84 Fab (Fab)
# chain 1: QVQLVQSGAEVKKPGASVKVSCKASDYTFTDYEMHWVRQAPGQGLEWMGAINPESGGTDYAQKFQGRVTMTADTSISTAYMELSRLRSDDTAVYYCTRVWLHWGQGTLVTVSS
# chain 2: B1 VL with N1D, S9D, A15L, K18R, S49P, T69S, V84L, S86A, L89V, G105Q
# B3: Tf73 Fab (Fab, V domains shown)
# VH: B2 chain 1 with D31G, N52D, S55A
# VL: B1 VL with N1D, S9D, A15L, K18R, S49P, T69S, V84L, S86A, L89V, G105Q
# notes: also called AK643-3 / AK628-1
# B4: Tf71 Fab (Fab)
# chain 1: B2 chain 1 with D26G, N52D, S55A
# chain 2: B1 VL with N1D, S9D, A15L, K18R, S49P, T69S, V84L, S86A, L89V, G105Q
# B5: Tf83 Fab (Fab)
# chain 1: B2 chain 1 with S55A
# chain 2: B1 VL with N1D, S9D, A15L, K18R, S49P, T69S, V84L, S86A, L89V, G105Q
# B6: Tf63 Fab (Fab, V domains shown)
# VH: B2 chain 1 with N52D, S55A
# VL: B1 VL with N1D, S9D, A15L, K18R, S49P, T69S, V84L, S86A, L89V, G105Q
# notes: Humanized 9A12 Fab; also called AK639-12 / AK628-1
# Experiments:
# [1] = biological target: human Siglec-9 (expressed on transfected Expi293 cells; also on primary human monocytes) (human) (UniProt Q9Y336)
# Chain of human Siglec-9 (expressed on transfected Expi293 cells; also on primary human monocytes) (human) (Q9Y336 18-463 limits assumed): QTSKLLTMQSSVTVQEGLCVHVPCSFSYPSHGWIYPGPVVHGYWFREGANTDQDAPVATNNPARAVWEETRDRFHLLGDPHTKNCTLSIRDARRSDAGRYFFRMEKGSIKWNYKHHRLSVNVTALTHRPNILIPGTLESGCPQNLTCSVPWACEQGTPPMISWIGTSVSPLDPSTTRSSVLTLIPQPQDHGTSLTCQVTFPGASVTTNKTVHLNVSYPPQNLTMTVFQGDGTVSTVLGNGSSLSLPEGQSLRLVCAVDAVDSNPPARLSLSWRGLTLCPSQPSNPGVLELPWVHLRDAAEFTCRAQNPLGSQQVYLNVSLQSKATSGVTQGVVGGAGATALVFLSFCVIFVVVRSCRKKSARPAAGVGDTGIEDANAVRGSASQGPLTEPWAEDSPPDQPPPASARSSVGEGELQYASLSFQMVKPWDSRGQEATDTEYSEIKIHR
# [2] = biological target: human SIGLEC-9-ECD-Fc recombinant fusion protein (human) (UniProt Q9Y336); test: column 'Blocking EC50 (nM)': ligand blocking assay, antibody pre-mixed with Siglec-9-ECD-Fc, blocked binding to Siglec-9 ligands on T47D cells, flow cytometry
# Chain of human SIGLEC-9-ECD-Fc recombinant fusion protein (human) (Q9Y336 18-343): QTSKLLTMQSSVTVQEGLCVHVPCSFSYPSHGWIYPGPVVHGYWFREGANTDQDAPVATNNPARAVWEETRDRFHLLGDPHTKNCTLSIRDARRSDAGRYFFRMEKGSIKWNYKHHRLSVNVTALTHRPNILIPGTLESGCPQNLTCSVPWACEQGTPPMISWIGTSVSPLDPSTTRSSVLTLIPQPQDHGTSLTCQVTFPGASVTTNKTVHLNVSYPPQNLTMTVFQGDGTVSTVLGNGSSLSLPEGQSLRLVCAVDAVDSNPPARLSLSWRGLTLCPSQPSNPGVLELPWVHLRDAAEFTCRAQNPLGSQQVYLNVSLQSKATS
# [3] = biological target: human SIGLEC-9-ECD-Fc recombinant fusion protein (human) (UniProt Q9Y336); test: Ligand Displacement Assay: Siglec-9-ECD-Fc pre-bound to ligands on T47D cells, antibody titrated, remaining Siglec-9-ECD-Fc as median MFI by flow cytometry; unit inferred, x axis 'Ab (nM)'
# [4] = biological target: human SIGLEC-9-ECD-Fc recombinant fusion protein (human) (UniProt Q9Y336); test: column 'Displacement EC50 (nM)': ligand displacement assay, Siglec-9-ECD-Fc pre-bound to ligands on T47D cells, antibody titrated, remaining Siglec-9-ECD-Fc by flow cytometry
# [5] = biological target: human SIGLEC-9-ECD-Fc recombinant fusion protein (human) (UniProt Q9Y336); test: Siglec-9/Ligand Blocking Assay: antibody titrated against Siglec-9-ECD-Fc, blocked binding to ligands on T47D cells, median MFI by flow cytometry; unit inferred, x axis 'Ab (nM)'
# [6] = biological target: human SIGLEC-9-ECD-Fc recombinant fusion protein (human) (UniProt Q9Y336); test: Ligand Displacement Assay, negative control: fitted value printed for a curve that only dips at the last points; unit inferred, x axis 'Ab (nM)'
# [7] = biological target: human SIGLEC-9-ECD-Fc recombinant fusion protein (human) (UniProt Q9Y336); test: Siglec-9/Ligand Blocking Assay, negative control: fitted value printed for an almost flat curve; unit inferred, x axis 'Ab (nM)'
# [8] = biological target: T1, human SIGLEC-9-ECD-Fc recombinant fusion protein (human, UniProt Q9Y336 18-343); test: bio-layer interferometry (ForteBio), antibody captured on anti-mouse sensors, Siglec-9-ECD as analyte, 25 C, 1:1 global fit
# T1 construct: The range starts at residue 1, so it includes the signal peptide; No cleavage site is stated; Secreted from CHOK1SV cells and purified on Protein A; also called Siglec-9-ECD-huFc; S9-ECD-Fc
# T1 sequence (Q9Y336 18-343): as above
# Description: Antibody binding analysis was carried out by bio-layer interferometry (ForteBio). […] Antibodies were captured on anti-mouse kinetic sensors at 0.5 ug/mL; Siglec-9-ECD was used as analyte and diluted in assay buffer from 50 nM to 1.56 nM with 2x dilutions. Two-minute associations were conducted, followed by 10-minute dissociations. Results were determined relative to a control empty reference AHC sensor, and analyzed using ForteBio analysis software with 1:1 global fit parameters.
# [9] = biological target: T1, human SIGLEC-9-ECD-Fc recombinant …; test: Siglec-9/Ligand Blocking Assay: antibody titrated against Siglec-9-ECD-Fc, blocked binding to ligands on T47D cells, median MFI by flow cytometry; unit inferred, x axis 'Ab (nM)'
# Description: (§1) Recombinant Siglec-9-Fc was added to T47D cells in the presence of anti-Siglec-9 antibodies at increasing concentrations and binding of the complex was detected on the cell surface. […] The ability of an antibody to displace ligand binding was also determined (FIGS. 3 and 5).
# (§2) Human breast cancer cell line T47D, which expresses high level of ligands for Siglec-9, was used to determine the blocking activity of anti-Siglec-9 antibodies in a cell-based assay. Two-fold serial dilutions of anti-Siglec-9 antibodies (40 nM to 40 pM) were combined with 10 nM Siglec-9-ECD-Fc in FACS buffer (PBS/2% BSA) and incubated on ice for 30 minutes. 2.5×10e4 T47D cells per well were added to round bottom 96-well tissue culture plates in FACS buffer, plates were centrifuged at 400g for 2 min, supernatant was removed and cells were re-suspended in 100 ul of the antibody-Siglec-9 complexes. After a 1 hour incubation on ice, cells were washed twice and incubated for 30 minutes with goat anti-human F(ab′)₂ fragment conjugated to AF647 (Jackson IR labs) at lug/ml in FACS buffer. After two more washes, cells were fixed in PBS/2% PFA and acquired on a Novocyte flow cytometer (ACEA biosciences). IC₅₀ values for blocking were determined based on plotting mean fluorescence in the APC channel and analysis using Prism Graphpad software.
# [10] = biological target: T1, human SIGLEC-9-ECD-Fc recombinant …; test: Ligand Displacement Assay: Siglec-9-ECD-Fc pre-bound to ligands on T47D cells, antibody titrated, remaining Siglec-9-ECD-Fc as median MFI by flow cytometry; unit inferred, x axis 'Ab (nM)'
# Description: as §1
# (§3) T47D cells were treated with 2ug/mL S9-ECD-Fc for 1 hour on ice. After the 1 hr preincubation of S9, a titration curve of anti Siglec-9 msIgG1s were added for 1 hr incubation at +37° C. Cells were then washed to remove unbound S9. Bound S9 were detected through the human Fc using Alexa488 conjugated secondary. Levels of remaining S9 were assessed by flow cytometry”
# [11] = biological target: T1, human SIGLEC-9-ECD-Fc recombinant …; test: column 'Displacement EC50 (nM)': ligand displacement assay, Siglec-9-ECD-Fc pre-bound to ligands on T47D cells, antibody titrated, remaining Siglec-9-ECD-Fc by flow cytometry
# Description: as §1, §3
# [12] = biological target: T1, human SIGLEC-9-ECD-Fc recombinant …; test: column 'Blocking EC50 (nM)': ligand blocking assay, antibody pre-mixed with Siglec-9-ECD-Fc, blocked binding to Siglec-9 ligands on T47D cells, flow cytometry
# Description: as §1, §2
# [13] = biological target: human Siglec-9 (expressed on transfected Expi293 cells; also on primary human monocytes) (human, UniProt Q9Y336 18-463); test: cell-based or functional assay
# Chain of human Siglec-9 (expressed on transfected Expi293 cells; also on primary human monocytes) (Q9Y336 18-463 limits assumed): as the sequence (Q9Y336 18-463 limits assumed) above
# [14] = biological target: T1, human SIGLEC-9-ECD-Fc recombinant …; test: BLI (ForteBio Octet Red), SIGLEC-9-ECD-Fc on anti-human Fc sensors, Fab in solution, monovalent
# Description: (§4) Anti-human Fc sensors were coated with SIGLEC-9-ECD-Fc at a concentration of 20 μg/ml in 1XHBS+1% BSA buffer (GE Lifesciences). After a brief wash with 1XHBS+1% BSA buffer, m9A12, ch9A12 or the humanized Fabs were applied to the antigen-coated sensors. The monovalent binding association and dissociation rates were calculated by the ForteBio Octet Red analysis software.
# [15] = biological target: T1, human SIGLEC-9-ECD-Fc recombinant …; test: as above; remark: listed apart in the source
# Description: The V-regions from the humanized Fab were re-formatted for expression as a human IgG4.
# as §4
molecule,measurement,setting,value
anti-Siglec-9 monoclonal antibody MAB1139 (R&D Systems),Internalization EC50: loss of surface Siglec-9 on CD14+ monocytes in PBMC after 24 h,[1],0.165 nM
same,EC50,[2],4.4 nM
same,IC50,[3],2 nM
same,EC50,[4],2 nM
same,IC50,[5],4.39 nM
msIgG1 (p1) (antibody),IC50,[6],140 nM
Isotype (p3) (antibody),IC50,[7],71.3 nM
B1,Kd,[8],< 0.001 nM
same,IC50,[9],2.62 nM
same,IC50,[10],1.52 nM
same,EC50,[11],1.52 nM
same,EC50,[12],2.62 nM
same,Internalization EC50: loss of surface Siglec-9 on CD14+ monocytes in PBMC after 24 h,[13],0.125 nM
B2,Kd,[14],2.24 nM
same,koff,[14],0.00295 s⁻¹
same,kon,[14],1.32e+06 M⁻¹ s⁻¹
B3,Kd,[14],0.575 nM
same,koff,[14],0.000184 s⁻¹
same,kon,[14],319000 M⁻¹ s⁻¹
same,Kd,[15],0.575 nM
same,koff,[15],0.000184 s⁻¹
same,kon,[15],319000 M⁻¹ s⁻¹
B4,Kd,[14],0.533 nM
same,koff,[14],0.000232 s⁻¹
same,kon,[14],435000 M⁻¹ s⁻¹
B5,Kd,[14],9.99 nM
same,koff,[14],0.00297 s⁻¹
same,kon,[14],298000 M⁻¹ s⁻¹
B6,Kd,[15],0.66 nM
same,koff,[15],0.00016 s⁻¹
same,kon,[15],242000 M⁻¹ s⁻¹
